Experimental findings from PMC2679190 are described below.

Some results are limits rather than exact numbers.

The experiment deals with MyBPC1 (Myosin Binding Protein C1) (UniProt Q00872).
UniProt Q00872, sequence (Q00872 whole entry, the tested form may be a part): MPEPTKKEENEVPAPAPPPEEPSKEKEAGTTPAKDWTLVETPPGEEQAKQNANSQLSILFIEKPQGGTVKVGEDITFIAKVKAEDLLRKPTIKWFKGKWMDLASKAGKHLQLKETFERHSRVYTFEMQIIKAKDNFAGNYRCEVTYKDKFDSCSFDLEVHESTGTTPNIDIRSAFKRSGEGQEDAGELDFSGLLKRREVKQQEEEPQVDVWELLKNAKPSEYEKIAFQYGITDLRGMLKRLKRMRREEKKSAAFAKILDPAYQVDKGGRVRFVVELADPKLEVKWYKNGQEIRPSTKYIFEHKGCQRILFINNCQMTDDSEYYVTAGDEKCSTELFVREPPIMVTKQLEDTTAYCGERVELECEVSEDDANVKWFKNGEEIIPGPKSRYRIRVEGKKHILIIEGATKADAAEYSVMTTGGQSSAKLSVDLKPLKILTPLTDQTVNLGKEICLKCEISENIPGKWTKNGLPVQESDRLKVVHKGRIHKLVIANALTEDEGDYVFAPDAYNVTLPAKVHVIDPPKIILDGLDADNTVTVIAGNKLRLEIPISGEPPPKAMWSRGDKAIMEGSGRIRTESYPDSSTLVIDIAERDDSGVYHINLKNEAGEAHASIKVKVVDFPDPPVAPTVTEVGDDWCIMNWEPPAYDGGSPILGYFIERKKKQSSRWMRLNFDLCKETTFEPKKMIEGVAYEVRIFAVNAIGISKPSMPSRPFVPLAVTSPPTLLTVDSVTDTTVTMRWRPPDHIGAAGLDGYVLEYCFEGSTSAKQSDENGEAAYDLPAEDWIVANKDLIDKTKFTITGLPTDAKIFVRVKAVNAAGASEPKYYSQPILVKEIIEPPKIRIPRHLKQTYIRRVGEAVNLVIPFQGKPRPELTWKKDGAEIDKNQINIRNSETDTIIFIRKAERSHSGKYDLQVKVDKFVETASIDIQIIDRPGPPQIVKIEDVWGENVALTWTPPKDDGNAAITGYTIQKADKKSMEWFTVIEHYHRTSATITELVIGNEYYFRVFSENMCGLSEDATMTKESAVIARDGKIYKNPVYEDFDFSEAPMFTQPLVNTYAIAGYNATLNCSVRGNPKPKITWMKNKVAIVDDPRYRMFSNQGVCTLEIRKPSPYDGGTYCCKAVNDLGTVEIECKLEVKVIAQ
Turning to “USP25m ΔUIM1 (Δ96-115 aa, inclusive) (enzyme)”, the rescue of HA-MyBPC1 from proteasome degradation in co-transfected HEK293T cells (MyBPC1 level by western blot, rescue by wild-type USP25m = 1) amounted to 2 fold. The substance “USP25m ΔUBA (Δ19-58 aa, inclusive) (enzyme)” displayed a rescue of HA-MyBPC1 from proteasome degradation in co-transfected HEK293T cells (MyBPC1 level by western blot, rescue by wild-type USP25m = 1) of 3 fold. As for “USP25m ΔUBA-UIM1-UIM2 (Δ19-141 aa, inclusive) (enzyme)”, the figure is less than 8 fold.
